# Measurements: paper PMC10499821
# Biological target: Nsp3 ADRP (SARS-CoV-2) (UniProt P0DTD1)
# Assay: fluorescence polarisation
binder,measurement,value
DGGTDGKAQLVVHSA [PARP10_(700–715)],Kd,300 µM
